Laboratory results from patent publication US20180319855A1, “GENETICALLY MUTATED AEQUORIN-BASED BIOSENSORS WITH EXTRA SENSITIVITY TO CALCIUM AND IMPROVED BIOLUMINESCENCE INTENSITY” (CENTRE NATIONAL DE LA RECHERCHE SCIENTIFIQUE (CNRS), priority 2015, published 2018).
Where a chain is given by its changes, count along the chain named. Names may count otherwise.

B1: S157D: apoaequorin mutant, serine 157 replaced by aspartic acid (SEQ ID NO:12) (protein)
chain: SKLTSDFDNPRWIGRHKHMFNFLDVNHNGKISLDEMVYKASDIVINNLGATPEQAKRHKDAVEAFFGGAGMKYGVETDWPAYIEGWKKLATDELEKYAKNEPTLIRIWGDALFDIVDKDQNGAITLDEWKAYTKAAGIIQSSEDCEETFRVCDIDEDGQLDVDEMTRQHLGFWYTMDPACEKLYGGAVP
modifications: mutant aequorin
B2: Q159G: apoaequorin mutant, glutamine 159 replaced by glycine (SEQ ID NO:7) (protein)
chain: B1 chain with D157S, Q159G
modifications: mutant aequorin
B3: QD + AD: apoaequorin double mutant Q159D + A123D (SEQ ID NO:15) (protein)
chain: B1 chain with A123D, D157S, Q159D
modifications: mutant aequorin
B4: N121D: apoaequorin mutant, asparagine 121 replaced by aspartic acid (SEQ ID NO:9) (protein)
chain: B1 chain with N121D, D157S
modifications: mutant aequorin
B5: QD + ND: apoaequorin double mutant Q159D + N121D (SEQ ID NO:13) (protein)
chain: B1 chain with N121D, D157S, Q159D
modifications: mutant aequorin
B6: QD + AT: apoaequorin double mutant Q159D + A179T (SEQ ID NO:17) (protein)
chain: B1 chain with D157S, Q159D, A179T
modifications: mutant aequorin
B7: Redq/QT + AT: aporedquorin mutant Q159T + A179T (SEQ ID NO:24) (protein)
chain: MVSKGEEVIKEFMRFKVRMEGSMNGHEFEIEGEGEGRPYEGTQTAKLKVTKGGPLPFAWDILSPQFMYGSKAYVKHPADIPDYKKLSFPEGFKWERVMNFEDGGLVTVTQDSSLQDGTLIYKVKMRGTNFPPDGPVMQKKTMGWEASTERLYPRDGVLKGEIHQALKLKDGGHYLVEFKTIYMAKKPVQLPGYYYVDTKLDITSHNEDYTIVEQYERSEGRHHLFLGHGTGSTGSGSSGTASSEDNNMAVIKEFMRFKVRMEGSMNGHEFEIEGEGEGRPYEGTQTAKLKVTKGGPLPFAWDILSPQFMYGSKAYVKHPADIPDYKKLSFPEGFKWERVMNFEDGGLVTVTQDSSLQDGTLIYKVKMRGTNFPPDGPVMQKKTMGWEASTERLYPRDGVLKGEIHQALKLKDGGHYLVEFKTIYMAKKPVQLPGYYYVDTKLDITSHNEDYTIVEQYERSEGRHHLFLSGFDNPRWIGRHKHMFNFLDVNHNGKISLDEMVYKASDIVINNLGATPEQAKRHKDAVEAFFGGAGMKYGVETDWPAYIEGWKKLATDELEKYAKNEPTLIRIWGDALFDIVDKDQNGAITLDEWKAYTKAAGIIQSSEDCEETFRVCDIDESGTLDVDEMTRQHLGFWYTMDPTCEKLYGGAVP
modifications: mutant aequorin

Assay: Ca2+ sensitivity curves of reconstituted photoproteins (L/Lmax vs free Ca2+)
Format: biochemical
Settings: CLZ-f; L/Lmax compared to Aeq-wt
Experimental: For in vitro reconstitution, the purified and concentrated samples of apoaequorin and redquorin mutant proteins were buffer-exchanged to 50 mM Tris-HCl (pH 7.5), 150 mM NaCl, 10 mM EGTA, 5 mM ß-mercaptoethanol, supplemented with 5 μM CLZ-f or CLZ-native and incubated overnight at 4° C., in the dark. The next day, samples were passed through molecular weight cut-offs (AmiconUitra MWCO, 10K and 50K, from Millipore), then resuspended in Zero-Ca^2+ buffer (30 mM MOPS, 100 mM KCl and 10 mM EGTA, pH 7.2) for calcium affinity, emission decay kinetics and spectral analysis assays. As for in cellulo reconstitution, HEK cells transiently expressing the proteins of apoaequorin and aporedquorin mutants were washed twice with Hank's Balanced Salt Solution (HBSS) and incubated in the dark, with 4 μM of the desired CLZ diluted in OptiMEM I medium (Gibco), for 2-3h at 37° C. and 5% CO2. Cells were washed once and maintained in HBSS at 37° C. for 20 min before the experiment.
Functional Analysis of Aequorin Mutants and Fusions Ca^2+ Sensitivity Curves.
Purified and reconstituted samples with CLZ-f or CLZ-native already buffered-exchanged to zero-calcium buffer ensured to minimize calcium contamination that could interfere with the measurements. Fifteen microliter aliquot of photoprotein samples (concentration range, 50 to 90 ng/μl) was placed in a home-made luminometer and mixed with 300 μl solution containing the desired concentration of free-Ca^2+. The solutions of EGTA-buffered with varying free-Ca^2+ prepared according to the manufacturer instruction for the kit (Molecular Probes, Invitrogen). Integration of the luminescence emission (per second) was measured for 20 seconds (background) before injecting a solution with known [free-Ca^2+] and lasted until stable or decaying signal (at final-phase) was obtained. At this point, 400 μl of a saturating calcium solution (30 mM MOPS, 100 mM CaCl2, pH 7.2) was rapidly injected (less than 30 ms) and light integration continued until all aequorin had been consumed and light intensity had gone back to background signal. Luminescence intensity (L) at different [Ca^2+] was taken as the response peak value in case of decaying signal or as the stable value in case of stable emission. Lmax, was measured by integrating all remaining luminescence signal from that moment (L value) to the end of the experiment. The EC50 values were extracted from a sigmoidal dose-response fit (variable slope) using GraphPad Prism software.

Row | Molecule | Relative intensity at pCa 6.5 | Relative intensity at pCa 7.2
1 | B1 | 6.0 | 2.2
2 | B2 | 3.3 | 3.2
3 | B3 | 26.2 | 15.0
4 | B4 | 4.9 | 2.1
5 | B5 | 29.0 | 41.7
6 | B6 | 58.5 | 60.8

Same assay, conditions: CLZ-f; redquorin series, CitA, GA; read-out: Calcium sensitivity, EC50

Row | EC50 [nM] | Molecule
7 | 284 ± 30 | B7

Same assay, conditions: CLZ-f; relative to Redq

Row | Molecule | Relative intensity at pCa 6.5 | Relative intensity at pCa 7.2
8 | B7 | 25.6 | 9.0

Same assay, conditions: CLZ-native; redquorin series, CitA, GA; read-out: Calcium sensitivity, EC50

Row | EC50 [nM] | Molecule
9 | 605 ± 16 | B7

Same assay, conditions: CLZ-native; relative to Redq

Row | Molecule | Relative intensity at pCa 6.5 | Relative intensity at pCa 7.2
10 | B7 | 18.3 | 14.1

Same assay, conditions: aequorin proteins reconstituted with CLZ-f; sigmoidal curve fit; mean ± SD, n at least 3; read-out: Calcium sensitivity, EC50

Row | EC50 [nM] | Molecule
11 | 322 | B1
12 | 492 ± 10 | B2
13 | 271 ± 15 | B3
14 | 400 ± 14 | B4
15 | 295 ± 17 | B5
16 | 216 | B6

Assay: Thermostability: relative bioluminescence activity after 30 min incubation
Format: physicochemical
Settings: 30° C. for 30 min; CLZ-f
Experimental: Thermostability of aequorin and redquorin mutant with increased affinity for calcium were compared to wt-aequorin (FIG. 5). The purified photoprotein samples were reconstituted with CLZ-f (as detailed earlier) and let to calibrate at room temperature (20-24° C.) for 20 min before taken the first measurement of total counts using saturating calcium solution (50 mM Tris-HCl, 100 mM CaCl2, pH 7.5). Samples were then incubated at two different temperatures (30 to 40° C.) for 30 min, and let equilibrate at room temperature for 15 minbefore taken the second measurement of total counts in the sample. The relative bioluminescence activity at each temperature was calculated by the ratio 2nd counts (at target T° C.)/1st counts (at initial T° C.) multiplied by 100.
Table 6 highlights the analysis of thermostability data obtained at two temperatures for aequorin and redquorin mutants, as well as CitA and GA. The values represent the degree of change in luminescence activity compared to wt-aeq, at each temperature. All values are relative to wt-aequorin (at each temperature) and were calculated by dividing the obtained data for each mutant/variant by the data for wt-aeq (as reference). The data were taken from FIG. 5.

Row | Molecule | Thermostability, luminescence activity relative to wt-aequorin
17 | B1 | 0.77
18 | B2 | 0.96
19 | B3 | 0.97
20 | B4 | 0.81
21 | B5 | 0.81
22 | B6 | 1.05
23 | B7 | 0.96

Same assay, conditions: 40° C. for 30 min; CLZ-f

Row | Molecule | Thermostability, luminescence activity relative to wt-aequorin
24 | B1 | 0.71
25 | B2 | 0.92
26 | B3 | 0.94
27 | B4 | 0.82
28 | B5 | 0.81
29 | B6 | 1.07
30 | B7 | 1.03

Same assay, conditions: after incubation at 30 and 40° C.

Row | Molecule | less activity compared to wt-aeq (thermostability)
31 | B1 | up to 29%
32 | B4 | 19%
33 | B5 | 20%
